Assay results taken from patent US20230272056A1 (Merck Sharp & Dohme, published 2023).
Residue numbers refer to the chain shown, from its start.

B1: 59BLH (Fab, V domains shown)
VH: EVQLVQSGAEVKKPGASVKVSCKASGYTFTSYDMHWVRQAPGQGLEWMGRIDPQSGGIRYAQKFQGRATLTVDTSTSTAYMELSRLRSDDTAVYYCARWDYGGYFDVWGQGTLVTVSS
VL: DIQMTQSPSSLSASVGDRVTITCRASQDIYNYLNWYQQKPGKAVKLLIYYTSVLETGVPSRFSGSGSGTDYTLTISSLQPEDFATYFCQQGDTLPWTFGQGTKLEIK
notes: also called 11BLM Fab
B2: 60BLH (Fab, V domains shown)
VH: B1 VH with I58V, R59K
VL: B1 VL with T93E
notes: also called 12BLM Fab
B3: 63BLH (Fab, V domains shown)
VH: B1 VH with R59K
VL: B1 VL with V53R
notes: also called 15BLM Fab; 015BLM Fab
B4: 67BLH (Fab, V domains shown)
VH: B1 VH with R59K, W99Y, Y101H
VL: B1 VL with V53Y
notes: also called 19BLM Fab

What follows are binders tested against T1, human LAP-TGFB1 Fc fusion (human) (assay: SPR).
T1 construct: also called human LAP-TGFβ1-Fc; human LAP-TGFβ-Fc isoform 1
T1 sequence (chain, as listed by the source limits assumed): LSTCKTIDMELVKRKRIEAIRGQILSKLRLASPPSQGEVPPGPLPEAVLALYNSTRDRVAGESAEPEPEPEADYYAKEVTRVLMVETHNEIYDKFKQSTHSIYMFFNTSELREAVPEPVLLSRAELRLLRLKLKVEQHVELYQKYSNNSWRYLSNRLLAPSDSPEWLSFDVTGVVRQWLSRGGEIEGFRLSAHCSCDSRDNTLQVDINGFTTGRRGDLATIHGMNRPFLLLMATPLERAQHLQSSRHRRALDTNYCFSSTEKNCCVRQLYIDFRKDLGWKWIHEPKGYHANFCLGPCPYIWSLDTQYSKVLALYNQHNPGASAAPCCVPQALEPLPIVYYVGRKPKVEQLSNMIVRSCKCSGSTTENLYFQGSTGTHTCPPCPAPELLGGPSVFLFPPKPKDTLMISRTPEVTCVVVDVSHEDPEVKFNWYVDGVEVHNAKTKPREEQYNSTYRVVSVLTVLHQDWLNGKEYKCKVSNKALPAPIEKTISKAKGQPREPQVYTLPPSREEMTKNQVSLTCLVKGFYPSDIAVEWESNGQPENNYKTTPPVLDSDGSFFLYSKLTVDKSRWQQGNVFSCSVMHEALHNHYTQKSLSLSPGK

Row | Fold change in KD from pH 7.4 to pH 6 [fold] | Binder
1 | 0.7 | B1
2 | 2.8 | B2
3 | 1.2 | B3
4 | 1.7 | B4

These binders were tested against T2, human LAP-TGFB2 Fc fusion (human) (assay: SPR pH 7.4).
T2 construct: also called human LAP-TGFβ2; LAP-TGFβ isoform 2
T2 sequence (chain, as listed by the source limits assumed): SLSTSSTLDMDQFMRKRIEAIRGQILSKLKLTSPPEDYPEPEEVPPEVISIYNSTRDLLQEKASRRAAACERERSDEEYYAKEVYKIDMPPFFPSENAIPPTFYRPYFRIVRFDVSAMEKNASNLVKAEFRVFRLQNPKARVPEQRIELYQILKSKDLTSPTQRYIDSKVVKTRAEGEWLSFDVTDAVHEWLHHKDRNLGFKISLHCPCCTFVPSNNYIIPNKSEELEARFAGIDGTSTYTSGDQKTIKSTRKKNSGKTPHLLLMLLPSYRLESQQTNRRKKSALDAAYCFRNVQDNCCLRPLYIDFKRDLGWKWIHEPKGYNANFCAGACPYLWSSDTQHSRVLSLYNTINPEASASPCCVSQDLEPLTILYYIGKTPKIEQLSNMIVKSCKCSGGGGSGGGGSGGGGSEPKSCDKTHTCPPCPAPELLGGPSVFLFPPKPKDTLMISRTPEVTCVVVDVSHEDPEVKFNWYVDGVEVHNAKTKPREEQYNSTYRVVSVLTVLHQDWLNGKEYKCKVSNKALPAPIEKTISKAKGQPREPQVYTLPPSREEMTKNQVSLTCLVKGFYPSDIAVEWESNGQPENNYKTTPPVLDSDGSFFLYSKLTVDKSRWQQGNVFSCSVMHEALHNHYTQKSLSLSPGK

Row | binding result | Binder
5 | no binding (tested: 1000 nM Fab) | B1
6 | no binding (tested: 1000 nM Fab) | B2
7 | no binding (tested: 1000 nM Fab) | B3
8 | no binding (tested: 1000 nM Fab) | B4

Each binder was assayed against T3, human LAP-TGFB3 Fc fusion (human) (assay: SPR pH 7.4).
T3 construct: also called human LAP-TGFβ3; LAP-TGFβ isoform 3
T3 sequence (chain, as listed by the source limits assumed): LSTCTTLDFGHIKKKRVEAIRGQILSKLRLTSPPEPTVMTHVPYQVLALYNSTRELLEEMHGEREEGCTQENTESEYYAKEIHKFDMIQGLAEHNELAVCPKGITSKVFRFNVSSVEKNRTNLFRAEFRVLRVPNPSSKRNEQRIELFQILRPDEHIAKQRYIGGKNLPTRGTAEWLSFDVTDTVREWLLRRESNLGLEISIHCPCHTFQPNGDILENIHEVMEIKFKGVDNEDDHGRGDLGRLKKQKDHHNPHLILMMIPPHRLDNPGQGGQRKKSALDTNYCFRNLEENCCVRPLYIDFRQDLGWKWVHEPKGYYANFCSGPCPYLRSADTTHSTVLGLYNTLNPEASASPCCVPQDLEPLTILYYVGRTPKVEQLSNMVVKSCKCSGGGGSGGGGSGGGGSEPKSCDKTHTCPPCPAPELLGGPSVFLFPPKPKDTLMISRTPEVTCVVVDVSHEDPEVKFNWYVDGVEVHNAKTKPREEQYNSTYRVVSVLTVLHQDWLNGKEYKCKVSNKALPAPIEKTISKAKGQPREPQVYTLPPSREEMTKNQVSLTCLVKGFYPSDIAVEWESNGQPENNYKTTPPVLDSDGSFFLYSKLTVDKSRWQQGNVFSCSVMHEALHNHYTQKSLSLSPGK

Row | binding result | Binder
9 | no binding (tested: 1000 nM Fab) | B1
10 | no binding (tested: 1000 nM Fab) | B2
11 | no binding (tested: 1000 nM Fab) | B3
12 | no binding (tested: 1000 nM Fab) | B4

These binders were tested against T1, human LAP-TGFB1 Fc fusion (assay: SPR pH 7.4, antigen captured on Fab 54BLH).
Outline: (§1)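 Human LAP-TGFβ1-Fc (~15-25 RU) captured on a low-density 54BLH Fab surface in HBS-EP+, leaving one epitope free for monovalent kinetics. Fabs/mAbs injected in 1:3 series, 6–0.07 nM or 60–0.74 nM plus 0 nM. Double-referenced; rate constants from 1:1 binding fit.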

Row | Kd [nM] | koff [s⁻¹] | kon [M⁻¹ s⁻¹] | Binder
13 | 0.044 | 0.000575 | 1.31e+07 | B1
14 | 0.036 | 0.000348 | 9.65e+06 | B2
15 | 0.355 | 0.00341 | 9.61e+06 | B3
16 | 2.36 | 0.0155 | 6.69e+06 | B4

These binders were tested against T1, human LAP-TGFB1 Fc fusion (assay: SPR pH 6.0, antigen captured on Fab 54BLH).
Outline: as §1

Row | Kd [nM] | koff [s⁻¹] | kon [M⁻¹ s⁻¹] | Binder
17 | 0.179 | 0.00126 | 7.08e+06 | B1
18 | 0.296 | 0.00167 | 5.65e+06 | B2
19 | 1.06 | 0.00796 | 7.51e+06 | B3
20 | 18.8 | 0.046 | 2.44e+06 | B4

Each binder was assayed against T1, human LAP-TGFB1 Fc fusion (assay: SPR pH 7.4, antigen-Fc captured, Fab analyte).

Row | Fold improvement in KD [fold] | Kd [nM] | koff [s⁻¹] | kon [M⁻¹ s⁻¹] | Binder
21 | 887 | 0.066 | 0.00047 | 7.1e+06 | B1
22 | 2440 | 0.024 | 0.000186 | 7.91e+06 | B2
23 | 197 | 0.297 | 0.00198 | 6.79e+06 | B3
24 | 61 | 0.961 | 0.00476 | 4.95e+06 | B4

What follows are binders tested against T1, human LAP-TGFB1 Fc fusion (assay: SPR pH 6.0, antigen-Fc captured, Fab analyte).
Method: A Series S CM4 sensor chip (Cytiva, catalog BR100534) was immobilized with an anti-human Fc capture antibody following the kit protocol (Cytiva, catalog BR100839) on a Biacore T200 instrument with 1× HBS-EP+ (Teknova, catalog H8022). […] The binding data were double referenced by subtraction of signal from a reference (capture surface only) flow cell and the 0 nM Fab injection. Binding rate constants were determined by fitting the data with a 1:1 binding model (Cytiva Biacore T200 Evaluation software 3.0).

Row | Kd [nM] | koff [s⁻¹] | kon [M⁻¹ s⁻¹] | Binder
25 | 0.049 | 0.000543 | 1.11e+07 | B1
26 | 0.067 | 0.000481 | 7.23e+06 | B2
27 | 0.369 | 0.00277 | 7.51e+06 | B3
28 | 1.59 | 0.0122 | 7.63e+06 | B4

Target: T1, human LAP-TGFB1 Fc fusion
Test: SPR pH 7.4, antigen-Fc captured, Fab analyte
Remark: another data set of the same source

Row | Kd [nM] | koff [s⁻¹] | kon [M⁻¹ s⁻¹] | Binder
29 | 0.066 | 0.00047 | 7.1e+06 | B1
30 | 0.024 | 0.000186 | 7.91e+06 | B2
31 | 0.297 | 0.00198 | 6.79e+06 | B3
32 | 0.961 | 0.00476 | 4.95e+06 | B4
